Results from publication PMC4502909.

Target: Pig heart citrate synthase (pig) (UniProt P00889)
UniProt P00889, sequence (P00889 28-464): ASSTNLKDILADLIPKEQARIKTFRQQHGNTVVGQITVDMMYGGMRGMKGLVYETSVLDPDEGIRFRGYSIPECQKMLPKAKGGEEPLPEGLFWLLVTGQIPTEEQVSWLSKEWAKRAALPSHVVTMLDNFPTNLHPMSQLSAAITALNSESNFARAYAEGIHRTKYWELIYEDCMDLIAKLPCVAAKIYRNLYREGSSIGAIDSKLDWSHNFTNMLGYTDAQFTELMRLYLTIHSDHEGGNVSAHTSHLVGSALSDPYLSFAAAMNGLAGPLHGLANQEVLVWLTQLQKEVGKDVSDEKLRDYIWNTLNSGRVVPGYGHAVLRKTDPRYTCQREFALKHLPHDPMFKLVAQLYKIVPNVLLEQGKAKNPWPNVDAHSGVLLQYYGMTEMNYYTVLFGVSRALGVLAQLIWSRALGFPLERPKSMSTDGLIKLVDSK

Row | Substance | reduction of the thermal aggregation of citrate synthase (0.8 µM, 44°C, absorbance/light scattering at 650 nm) by 5 µM rHtrA2 [%] | reduction of the thermal aggregation of citrate synthase (0.8 µM, 44°C, absorbance/light scattering at 650 nm) by 5 µM rHtrA1 [%]
1 | rHtrA2 (HtrA2-ΔTM-Ser619Ala-His6), secreted soluble C-terminal region of Staphylococcus aureus strain COL HtrA2 (domain or fragment) | 30 | 
2 | rHtrA1 (HtrA1-ΔTM-Ser255Ala-His6), secreted soluble C-terminal region of Staphylococcus aureus strain COL HtrA1 (domain or fragment) |  | 30
